Measured values taken from article PMC5345052, “Auto-phosphorylation Represses Protein Kinase R Activity” (Scientific Reports, 2017).
Blank lines part the entries; values can stand above or below the molecule they belong to.

What was measured:
[1] = biological target: truncated PKR kinase domain with N-terminal split Venus V2 tag (UniProt P19525); assay: split Venus fluorescence complementation in HEK293 cells; conditions: 20 ng/well of each plasmid construct, read off a plot
[2] = biological target: truncated phosphor-transfer mutant PKR kinase domain (KD-K296R) with N-terminal split Venus V2 tag (UniProt P19525); assay: as above; conditions: 20 ng/well of each plasmid construct; partner kinase domain carries K296R; n = 5; parent: est. 3.0; read off a plot
[3] = biological target: PKR RNA-binding domain with C-terminal split Venus V1 tag; assay: as above; conditions: 20 ng/well of each plasmid construct; n = 5; parent: est. 2.9; read off a plot
[4] = biological target: T1, truncated phosphor-transfer mutant PKR kinase domain (KD-K296R) with N-terminal split Venus V2 tag, P19525; assay: as above; conditions: chain shown with the change; 20 ng/well of full-length PKR and 30 ng/well of the truncated KD; partner kinase domain carries K296R; n = 7; parent: est. 4.2; read off a plot
T1 chain: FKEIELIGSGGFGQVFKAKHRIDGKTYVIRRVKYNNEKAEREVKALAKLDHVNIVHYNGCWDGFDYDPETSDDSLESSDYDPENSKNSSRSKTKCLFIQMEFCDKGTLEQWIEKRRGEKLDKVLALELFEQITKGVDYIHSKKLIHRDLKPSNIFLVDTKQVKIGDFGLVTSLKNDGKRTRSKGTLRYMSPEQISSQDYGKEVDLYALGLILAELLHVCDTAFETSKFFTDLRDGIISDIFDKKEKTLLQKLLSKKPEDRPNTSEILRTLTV

[5] = biological target: T2, kinase-dead PKR (K296R), recombinant His-tagged full-length protein kinase R (human), P19525; assay: liquid chromatography; recombinant PKR isolated during purification as separate monomer and dimer species; conditions: remark: other sources report otherwise
T2 chain: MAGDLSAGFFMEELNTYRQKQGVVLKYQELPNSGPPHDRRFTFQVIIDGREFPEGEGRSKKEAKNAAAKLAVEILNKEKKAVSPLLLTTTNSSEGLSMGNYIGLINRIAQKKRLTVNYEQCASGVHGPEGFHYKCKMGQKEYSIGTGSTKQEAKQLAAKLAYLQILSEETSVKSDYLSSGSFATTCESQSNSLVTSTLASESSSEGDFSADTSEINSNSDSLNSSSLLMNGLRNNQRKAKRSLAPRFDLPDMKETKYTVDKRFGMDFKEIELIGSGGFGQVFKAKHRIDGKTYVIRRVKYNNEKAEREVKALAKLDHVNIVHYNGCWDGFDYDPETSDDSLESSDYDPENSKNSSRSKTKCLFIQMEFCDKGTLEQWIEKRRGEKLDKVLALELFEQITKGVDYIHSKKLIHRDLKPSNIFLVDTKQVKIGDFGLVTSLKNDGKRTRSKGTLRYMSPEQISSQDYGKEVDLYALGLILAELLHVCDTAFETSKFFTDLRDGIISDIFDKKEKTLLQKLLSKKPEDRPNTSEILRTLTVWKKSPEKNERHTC

[6] = 5 μM 2-aminopurine (2AP), n = 6, parent: est. 3.8

response [1, 6]: 3.1 | response ([1]; n = 7, parent: est. 2.9): 2.5 | response [2]: 2.6
Molecule: PKR RNA-binding domain with C-terminal split Venus V1 tag S33E; T42E

response [3]: 3
Molecule: truncated PKR kinase domain with N-terminal split Venus V2 tag (from UniProt P19525) K296R

response [1, 6]: 4.3 | response ([1]; n = 7, parent: est. 2.9): 2.9 | response [2]: 3.5
Molecule: PKR RNA-binding domain with C-terminal split Venus V1 tag S33A; T42A

response [4]: 21
B1: full-length PKR with N-terminal split Venus V1 tag, P19525 H37R; S33A; T42A (protein)
chain: MAGDLSAGFFMEELNTYRQKQGVVLKYQELPNAGPPRDRRFAFQVIIDGREFPEGEGRSKKEAKNAAAKLAVEILNKEKKAVSPLLLTTTNSSEGLSMGNYIGLINRIAQKKRLTVNYEQCASGVHGPEGFHYKCKMGQKEYSIGTGSTKQEAKQLAAKLAYLQILSEETSVKSDYLSSGSFATTCESQSNSLVTSTLASESSSEGDFSADTSEINSNSDSLNSSSLLMNGLRNNQRKAKRSLAPRFDLPDMKETKYTVDKRFGMDFKEIELIGSGGFGQVFKAKHRIDGKTYVIKRVKYNNEKAEREVKALAKLDHVNIVHYNGCWDGFDYDPETSDDSLESSDYDPENSKNSSRSKTKCLFIQMEFCDKGTLEQWIEKRRGEKLDKVLALELFEQITKGVDYIHSKKLIHRDLKPSNIFLVDTKQVKIGDFGLVTSLKNDGKRTRSKGTLRYMSPEQISSQDYGKEVDLYALGLILAELLHVCDTAFETSKFFTDLRDGIISDIFDKKEKTLLQKLLSKKPEDRPNTSEILRTLTVWKKSPEKNERHTC

response [4]: 3.1
B2: full-length PKR with N-terminal split Venus V1 tag, P19525 H37R; S33E; T42E (protein)
chain: MAGDLSAGFFMEELNTYRQKQGVVLKYQELPNEGPPRDRRFEFQVIIDGREFPEGEGRSKKEAKNAAAKLAVEILNKEKKAVSPLLLTTTNSSEGLSMGNYIGLINRIAQKKRLTVNYEQCASGVHGPEGFHYKCKMGQKEYSIGTGSTKQEAKQLAAKLAYLQILSEETSVKSDYLSSGSFATTCESQSNSLVTSTLASESSSEGDFSADTSEINSNSDSLNSSSLLMNGLRNNQRKAKRSLAPRFDLPDMKETKYTVDKRFGMDFKEIELIGSGGFGQVFKAKHRIDGKTYVIKRVKYNNEKAEREVKALAKLDHVNIVHYNGCWDGFDYDPETSDDSLESSDYDPENSKNSSRSKTKCLFIQMEFCDKGTLEQWIEKRRGEKLDKVLALELFEQITKGVDYIHSKKLIHRDLKPSNIFLVDTKQVKIGDFGLVTSLKNDGKRTRSKGTLRYMSPEQISSQDYGKEVDLYALGLILAELLHVCDTAFETSKFFTDLRDGIISDIFDKKEKTLLQKLLSKKPEDRPNTSEILRTLTVWKKSPEKNERHTC

response [4]: 3.6
B3: full-length PKR with N-terminal split Venus V1 tag, P19525 S33E; T42E; K261D (protein)
chain: MAGDLSAGFFMEELNTYRQKQGVVLKYQELPNEGPPHDRRFEFQVIIDGREFPEGEGRSKKEAKNAAAKLAVEILNKEKKAVSPLLLTTTNSSEGLSMGNYIGLINRIAQKKRLTVNYEQCASGVHGPEGFHYKCKMGQKEYSIGTGSTKQEAKQLAAKLAYLQILSEETSVKSDYLSSGSFATTCESQSNSLVTSTLASESSSEGDFSADTSEINSNSDSLNSSSLLMNGLRNNQRKAKRSLAPRFDLPDMKETKYTVDDRFGMDFKEIELIGSGGFGQVFKAKHRIDGKTYVIKRVKYNNEKAEREVKALAKLDHVNIVHYNGCWDGFDYDPETSDDSLESSDYDPENSKNSSRSKTKCLFIQMEFCDKGTLEQWIEKRRGEKLDKVLALELFEQITKGVDYIHSKKLIHRDLKPSNIFLVDTKQVKIGDFGLVTSLKNDGKRTRSKGTLRYMSPEQISSQDYGKEVDLYALGLILAELLHVCDTAFETSKFFTDLRDGIISDIFDKKEKTLLQKLLSKKPEDRPNTSEILRTLTVWKKSPEKNERHTC

response [4]: 12
B4: full-length PKR with N-terminal split Venus V1 tag, P19525 S33E; T42E; R262D (protein)
chain: MAGDLSAGFFMEELNTYRQKQGVVLKYQELPNEGPPHDRRFEFQVIIDGREFPEGEGRSKKEAKNAAAKLAVEILNKEKKAVSPLLLTTTNSSEGLSMGNYIGLINRIAQKKRLTVNYEQCASGVHGPEGFHYKCKMGQKEYSIGTGSTKQEAKQLAAKLAYLQILSEETSVKSDYLSSGSFATTCESQSNSLVTSTLASESSSEGDFSADTSEINSNSDSLNSSSLLMNGLRNNQRKAKRSLAPRFDLPDMKETKYTVDKDFGMDFKEIELIGSGGFGQVFKAKHRIDGKTYVIKRVKYNNEKAEREVKALAKLDHVNIVHYNGCWDGFDYDPETSDDSLESSDYDPENSKNSSRSKTKCLFIQMEFCDKGTLEQWIEKRRGEKLDKVLALELFEQITKGVDYIHSKKLIHRDLKPSNIFLVDTKQVKIGDFGLVTSLKNDGKRTRSKGTLRYMSPEQISSQDYGKEVDLYALGLILAELLHVCDTAFETSKFFTDLRDGIISDIFDKKEKTLLQKLLSKKPEDRPNTSEILRTLTVWKKSPEKNERHTC

stoichiometry N [5]: 2
B5: kinase-dead PKR (K296R), recombinant His-tagged full-length protein kinase R, P19525 1-551 (enzyme)
chain: MAGDLSAGFFMEELNTYRQKQGVVLKYQELPNSGPPHDRRFTFQVIIDGREFPEGEGRSKKEAKNAAAKLAVEILNKEKKAVSPLLLTTTNSSEGLSMGNYIGLINRIAQKKRLTVNYEQCASGVHGPEGFHYKCKMGQKEYSIGTGSTKQEAKQLAAKLAYLQILSEETSVKSDYLSSGSFATTCESQSNSLVTSTLASESSSEGDFSADTSEINSNSDSLNSSSLLMNGLRNNQRKAKRSLAPRFDLPDMKETKYTVDKRFGMDFKEIELIGSGGFGQVFKAKHRIDGKTYVIRRVKYNNEKAEREVKALAKLDHVNIVHYNGCWDGFDYDPETSDDSLESSDYDPENSKNSSRSKTKCLFIQMEFCDKGTLEQWIEKRRGEKLDKVLALELFEQITKGVDYIHSKKLIHRDLKPSNIFLVDTKQVKIGDFGLVTSLKNDGKRTRSKGTLRYMSPEQISSQDYGKEVDLYALGLILAELLHVCDTAFETSKFFTDLRDGIISDIFDKKEKTLLQKLLSKKPEDRPNTSEILRTLTVWKKSPEKNERHTC

response [4]: 3.8
B6: full-length PKR with N-terminal split Venus V1 tag, P19525 H37R (protein)
chain: MAGDLSAGFFMEELNTYRQKQGVVLKYQELPNSGPPRDRRFTFQVIIDGREFPEGEGRSKKEAKNAAAKLAVEILNKEKKAVSPLLLTTTNSSEGLSMGNYIGLINRIAQKKRLTVNYEQCASGVHGPEGFHYKCKMGQKEYSIGTGSTKQEAKQLAAKLAYLQILSEETSVKSDYLSSGSFATTCESQSNSLVTSTLASESSSEGDFSADTSEINSNSDSLNSSSLLMNGLRNNQRKAKRSLAPRFDLPDMKETKYTVDKRFGMDFKEIELIGSGGFGQVFKAKHRIDGKTYVIKRVKYNNEKAEREVKALAKLDHVNIVHYNGCWDGFDYDPETSDDSLESSDYDPENSKNSSRSKTKCLFIQMEFCDKGTLEQWIEKRRGEKLDKVLALELFEQITKGVDYIHSKKLIHRDLKPSNIFLVDTKQVKIGDFGLVTSLKNDGKRTRSKGTLRYMSPEQISSQDYGKEVDLYALGLILAELLHVCDTAFETSKFFTDLRDGIISDIFDKKEKTLLQKLLSKKPEDRPNTSEILRTLTVWKKSPEKNERHTC

response [4]: 3.4
B7: full-length PKR with N-terminal split Venus V1 tag, P19525 K261D (protein)
chain: MAGDLSAGFFMEELNTYRQKQGVVLKYQELPNSGPPHDRRFTFQVIIDGREFPEGEGRSKKEAKNAAAKLAVEILNKEKKAVSPLLLTTTNSSEGLSMGNYIGLINRIAQKKRLTVNYEQCASGVHGPEGFHYKCKMGQKEYSIGTGSTKQEAKQLAAKLAYLQILSEETSVKSDYLSSGSFATTCESQSNSLVTSTLASESSSEGDFSADTSEINSNSDSLNSSSLLMNGLRNNQRKAKRSLAPRFDLPDMKETKYTVDDRFGMDFKEIELIGSGGFGQVFKAKHRIDGKTYVIKRVKYNNEKAEREVKALAKLDHVNIVHYNGCWDGFDYDPETSDDSLESSDYDPENSKNSSRSKTKCLFIQMEFCDKGTLEQWIEKRRGEKLDKVLALELFEQITKGVDYIHSKKLIHRDLKPSNIFLVDTKQVKIGDFGLVTSLKNDGKRTRSKGTLRYMSPEQISSQDYGKEVDLYALGLILAELLHVCDTAFETSKFFTDLRDGIISDIFDKKEKTLLQKLLSKKPEDRPNTSEILRTLTVWKKSPEKNERHTC

response [4]: 13
B8: full-length PKR with N-terminal split Venus V1 tag, P19525 R262D (protein)
chain: MAGDLSAGFFMEELNTYRQKQGVVLKYQELPNSGPPHDRRFTFQVIIDGREFPEGEGRSKKEAKNAAAKLAVEILNKEKKAVSPLLLTTTNSSEGLSMGNYIGLINRIAQKKRLTVNYEQCASGVHGPEGFHYKCKMGQKEYSIGTGSTKQEAKQLAAKLAYLQILSEETSVKSDYLSSGSFATTCESQSNSLVTSTLASESSSEGDFSADTSEINSNSDSLNSSSLLMNGLRNNQRKAKRSLAPRFDLPDMKETKYTVDKDFGMDFKEIELIGSGGFGQVFKAKHRIDGKTYVIKRVKYNNEKAEREVKALAKLDHVNIVHYNGCWDGFDYDPETSDDSLESSDYDPENSKNSSRSKTKCLFIQMEFCDKGTLEQWIEKRRGEKLDKVLALELFEQITKGVDYIHSKKLIHRDLKPSNIFLVDTKQVKIGDFGLVTSLKNDGKRTRSKGTLRYMSPEQISSQDYGKEVDLYALGLILAELLHVCDTAFETSKFFTDLRDGIISDIFDKKEKTLLQKLLSKKPEDRPNTSEILRTLTVWKKSPEKNERHTC
